target: FITC-DYRK1B_(394–409) (human) (UniProt Q9Y463); test: fluorescence polarisation; conditions: not given

Question: For “Nsp16 (from UniProt P0DTD1 6799-7096) (enzyme)”, which Kd is on record?
Answer: 3 µM

target: Nsp3 Ubl1 (SARS-CoV-2) (UniProt P0DTD1); test: fluorescence polarisation; conditions: not given

Question: Which fold higher KD than NCOA2 (1074–1089) does the source give for “N_(216–231) peptide (from UniProt P0DTC9 216-231)” here?
Answer: 2 fold

target: GST-tagged Nsp16 (UniProt P0DTD1); test: SPOT array alanine scan; conditions: parent: est. 0; read off a plot

Question: How did the other: signal change in % turn out when ICA1L_(450–465) on the SPOT array D11A was run?
Answer: -10%

Question: How did the other: signal change in % turn out when ICA1L_(450–465) on the SPOT array F9A was run?
Answer: -88%

Question: With ICA1L_(450–465) on the SPOT array S16A as the substance, how does the other: signal change in % read?
Answer: -10%

Question: ICA1L_(450–465) on the SPOT array W5A was tested. Which other: signal change in % did it give?
Answer: -100%

Question: For ICA1L_(450–465) on the SPOT array P14A, which other: signal change in % is on record?
Answer: -22%

Question: ICA1L_(450–465) on the SPOT array F6A was tested. Which other: signal change in % did it give?
Answer: -50%

Question: How did the other: signal change in % turn out when ICA1L_(450–465) on the SPOT array L12A was run?
Answer: -20%

Question: ICA1L_(450–465) on the SPOT array M2A was tested. Which other: signal change in % did it give?
Answer: -57%

Question: Which other: signal change in % does the source give for ICA1L_(450–465) on the SPOT array N7A here?
Answer: -48%

Question: ICA1L_(450–465) on the SPOT array L15A was tested. Which other: signal change in % did it give?
Answer: -20%

Question: How did the other: signal change in % turn out when ICA1L_(450–465) on the SPOT array D1A was run?
Answer: -25%

Question: With ICA1L_(450–465) on the SPOT array L8A as the substance, how does the other: signal change in % read?
Answer: -35%

Question: How did the other: signal change in % turn out when ICA1L_(450–465) on the SPOT array S3A was run?
Answer: -57%

target: GST-tagged Nsp3 ADRP (UniProt P0DTD1); test: SPOT array alanine scan; conditions: parent: est. -10; read off a plot

Question: For MBOAT1_(16–31) on the SPOT array Y19A, which other: signal change in % is on record?
Answer: 30%

Question: With MBOAT1_(16–31) on the SPOT array E25A as the substance, how does the other: signal change in % read?
Answer: -100%

Question: How did the other: signal change in % turn out when MBOAT1_(16–31) on the SPOT array T18A was run?
Answer: 10%

Question: How did the other: signal change in % turn out when MBOAT1_(16–31) on the SPOT array L26A was run?
Answer: -45%

Question: For MBOAT1_(16–31) on the SPOT array H21A, which other: signal change in % is on record?
Answer: -55%

Question: Which other: signal change in % does the source give for MBOAT1_(16–31) on the SPOT array G16A here?
Answer: -15%

Question: How did the other: signal change in % turn out when MBOAT1_(16–31) on the SPOT array P22A was run?
Answer: -70%

Question: How did the other: signal change in % turn out when MBOAT1_(16–31) on the SPOT array L31A was run?
Answer: -25%

Question: Which other: signal change in % does the source give for MBOAT1_(16–31) on the SPOT array S17A here?
Answer: -25%

Question: How did the other: signal change in % turn out when MBOAT1_(16–31) on the SPOT array P30A was run?
Answer: -45%

Question: For MBOAT1_(16–31) on the SPOT array L23A, which other: signal change in % is on record?
Answer: -100%

Question: MBOAT1_(16–31) on the SPOT array S24A was tested. Which other: signal change in % did it give?
Answer: -90%

Question: How did the other: signal change in % turn out when MBOAT1_(16–31) on the SPOT array L20A was run?
Answer: -5%

Question: MBOAT1_(16–31) on the SPOT array G28A was tested. Which other: signal change in % did it give?
Answer: -50%

Question: How did the other: signal change in % turn out when MBOAT1_(16–31) on the SPOT array L27A was run?
Answer: -20%

Question: How did the other: signal change in % turn out when MBOAT1_(16–31) on the SPOT array I29A was run?
Answer: -5%

target: GST-tagged Nsp3 Ubl1 (UniProt P0DTD1); test: SPOT array alanine scan; conditions: parent: est. 0; read off a plot

Question: With “NCOA2_(1074–1089) on the SPOT array D1075A” as the substance, how does the other: signal change in % read?
Answer: -5%

Question: With “NCOA2_(1074–1089) on the SPOT array E1076A” as the substance, how does the other: signal change in % read?
Answer: -40%

Question: Which other: signal change in % does the source give for “NCOA2_(1074–1089) on the SPOT array L1083A” here?
Answer: -35%

Question: With “NCOA2_(1074–1089) on the SPOT array Q1082A” as the substance, how does the other: signal change in % read?
Answer: -45%

Question: With “NCOA2_(1074–1089) on the SPOT array G1077A” as the substance, how does the other: signal change in % read?
Answer: -5%

Question: For “NCOA2_(1074–1089) on the SPOT array N1089A”, which other: signal change in % is on record?
Answer: -25%

Question: With “NCOA2_(1074–1089) on the SPOT array Y1084A” as the substance, how does the other: signal change in % read?
Answer: -62%

Question: Which other: signal change in % does the source give for “NCOA2_(1074–1089) on the SPOT array L1085A” here?
Answer: -50%

Question: Which other: signal change in % does the source give for “NCOA2_(1074–1089) on the SPOT array R1088A” here?
Answer: -30%

Question: “NCOA2_(1074–1089) on the SPOT array L1087A” was tested. Which other: signal change in % did it give?
Answer: -40%

Question: “NCOA2_(1074–1089) on the SPOT array S1074A” was tested. Which other: signal change in % did it give?
Answer: 0%

Question: With “NCOA2_(1074–1089) on the SPOT array L1080A” as the substance, how does the other: signal change in % read?
Answer: -85%

Question: With “NCOA2_(1074–1089) on the SPOT array L1079A” as the substance, how does the other: signal change in % read?
Answer: -10%

Question: For “NCOA2_(1074–1089) on the SPOT array D1081A”, which other: signal change in % is on record?
Answer: -20%

— paper PMC10499821
